The target in the assay is T1, DNAJB6b wt (human, UniProt O75190-2 1-241).
T1 construct: DNAJB6b, human, the 241-residue b isoform of DNAJB6; No tags; also called wt DNAJB6b; unlabelled DNAJB6b
Description: native gel or EMSA; agarose gel imaged on an IR fluorescence scanner; 5 nM DNAJB6b-CCys-IR680 mixed with unlabelled DNAJB6b-wt to total concentrations of 5 nM to 32 µM. The settings on record: both partners purified.

One molecule from article PMC8781954, “High-Efficiency Expression and Purification of DNAJB6b Based on the pH-Modulation of Solubility and Denaturant-Modulation of Size” (Molecules, 2022) can be followed below.

T1 sequence (O75190 other isoform, or with tags, fused parts or gaps): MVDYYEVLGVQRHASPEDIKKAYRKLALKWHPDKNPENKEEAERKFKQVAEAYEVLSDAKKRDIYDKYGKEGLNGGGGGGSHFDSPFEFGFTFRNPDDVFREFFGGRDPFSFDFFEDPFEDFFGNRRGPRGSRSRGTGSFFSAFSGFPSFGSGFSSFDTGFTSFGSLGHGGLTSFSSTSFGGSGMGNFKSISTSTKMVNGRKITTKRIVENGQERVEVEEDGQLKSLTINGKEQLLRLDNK

B1: DNAJB6b-CCys-IR680 (natural protein)
chain: not shown
modifications: IRdye-680 (maleimide dye) on the engineered C-terminal cysteine
notes: DNAJB6b, human, the 241-residue b isoform of DNAJB6, no tags; a cysteine residue added at the C-terminus (variant CCys); also called IR680-labelled DBAJB6b; DNAJB6-CCys labelled with IRdye680; source: E. coli BL21 DE3 pLysS star, purified as wt with 1 mM DTT in all buffers; labelled with IRdye680 maleimide, free dye removed by SEC
For the molecule B1, the binding result is recorded as “binds”.
